Numbered stars: 1 amine (or outer) side, 2 acyl side, 3 side chain; on linkers, the order of the positions; unused ones are H or OH. Bridge positions count the residues as written; N and C are the ends. * marks the point of attachment. C20 diacid = O=C(O)CCCCCCCCCCCCCCCCCCC(=O)*; γGlu = O=C(O)[C@H](CCC(=O)[*:2])N[*:1]

Experiment [1] addresses T1, rat amylin receptor (rat calcitonin receptor + rat RAMP 3) (rat, UniProt P32214 25-516; Q9JJ73 23-147).
T1 construct: whole, on cells; Membranes prepared from transiently transfected BHK tk'ts 13 cells; also called rAmylin-R; rat amylin 3(a) receptor
T1 sequence (looked up) 1: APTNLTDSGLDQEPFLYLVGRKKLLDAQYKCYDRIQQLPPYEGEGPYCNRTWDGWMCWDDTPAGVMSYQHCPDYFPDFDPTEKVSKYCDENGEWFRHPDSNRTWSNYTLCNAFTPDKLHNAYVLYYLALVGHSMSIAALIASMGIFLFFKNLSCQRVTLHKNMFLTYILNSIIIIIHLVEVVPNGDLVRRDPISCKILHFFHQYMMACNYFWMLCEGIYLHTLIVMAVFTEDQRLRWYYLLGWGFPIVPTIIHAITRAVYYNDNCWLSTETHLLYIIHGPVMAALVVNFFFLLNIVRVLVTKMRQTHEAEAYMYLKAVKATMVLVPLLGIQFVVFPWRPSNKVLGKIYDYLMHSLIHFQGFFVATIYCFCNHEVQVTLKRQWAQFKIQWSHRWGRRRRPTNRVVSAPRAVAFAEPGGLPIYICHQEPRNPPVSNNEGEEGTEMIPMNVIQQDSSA
T1 sequence (looked up) 2: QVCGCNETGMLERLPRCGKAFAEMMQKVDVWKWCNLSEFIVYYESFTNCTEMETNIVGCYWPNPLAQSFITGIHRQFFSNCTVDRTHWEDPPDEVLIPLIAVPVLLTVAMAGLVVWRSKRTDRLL
Put plainly: SPA competition vs 125I-rat amylin, membranes (Assay VI).

Experiment [2] addresses T2, rat calcitonin receptor (rat, UniProt P32214 25-516).
T2 construct: whole, on cells; Membranes prepared from transiently transfected BHK tk'ts 13 cells; also called rCTR; rat calcitonin (a) receptor
T2 sequence (looked up): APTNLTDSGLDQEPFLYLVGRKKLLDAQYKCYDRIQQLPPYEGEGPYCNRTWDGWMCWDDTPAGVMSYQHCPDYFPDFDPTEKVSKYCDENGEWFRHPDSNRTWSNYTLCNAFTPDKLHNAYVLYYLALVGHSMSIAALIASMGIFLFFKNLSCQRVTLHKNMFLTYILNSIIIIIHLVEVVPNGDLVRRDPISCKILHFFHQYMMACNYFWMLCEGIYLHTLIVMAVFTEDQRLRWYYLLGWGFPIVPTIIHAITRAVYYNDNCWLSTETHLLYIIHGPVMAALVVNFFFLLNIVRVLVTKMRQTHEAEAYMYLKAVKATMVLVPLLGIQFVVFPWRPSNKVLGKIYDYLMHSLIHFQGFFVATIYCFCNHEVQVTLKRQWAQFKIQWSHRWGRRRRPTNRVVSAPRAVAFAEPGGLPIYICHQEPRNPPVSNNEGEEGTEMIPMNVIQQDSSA
Put plainly: SPA competition vs 125I-calcitonin, membranes (Assay VIII).

For experiment [3], the target named is T2, rat calcitonin receptor. Briefly: ratio of IC50 on rat calcitonin receptor to IC50 on rat amylin receptor.
In experiment [4] the target is T3, human calcitonin receptor (human, UniProt P30988 25-474).
T3 construct: whole, on cells; Membranes from stably transfected BHK cells; also called hCTR; hCT
T3 sequence (looked up): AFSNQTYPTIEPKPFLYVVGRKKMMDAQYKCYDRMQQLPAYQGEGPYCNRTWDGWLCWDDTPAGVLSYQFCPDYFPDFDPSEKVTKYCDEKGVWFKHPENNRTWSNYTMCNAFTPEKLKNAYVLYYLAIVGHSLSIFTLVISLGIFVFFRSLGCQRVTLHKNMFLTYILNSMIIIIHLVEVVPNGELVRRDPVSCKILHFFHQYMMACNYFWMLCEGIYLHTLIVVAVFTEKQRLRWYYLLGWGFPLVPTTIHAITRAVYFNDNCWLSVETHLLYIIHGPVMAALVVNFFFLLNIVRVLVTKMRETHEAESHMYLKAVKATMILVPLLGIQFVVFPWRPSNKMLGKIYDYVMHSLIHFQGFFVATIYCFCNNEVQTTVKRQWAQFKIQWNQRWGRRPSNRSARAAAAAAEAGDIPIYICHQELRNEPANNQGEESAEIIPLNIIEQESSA
Put plainly: ratio of IC50 on human calcitonin receptor to IC50 on human amylin receptor. Put shortly:
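Competition binding by SPA with cell membranes (35 ng/μL) and SPA beads in 50 mM Hepes pH 7.4 with 1 mM CaCl2, 5 mM MgCl2, 0.1% OA and 0.02% Tween20. Incubated 120 min at 25 °C with shaking, then counted.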

B1: N^-1-[(4S)-4-carboxy-4-(19-carboxynonadecanoylamino)butanoyl]-Gly[Arg1,His14,Arg17,Pro21,Pro27,His34]-h-amylin (peptide)
peptide: {C20 diacid-γGlu}-GRCNTATCATQRLAHFLRHSSPNFGAIPSSTNVGHNTY-NH2
modifications: disulfide 3-8
SMILES: CC[C@H](C)[C@H](NC(=O)[C@H](C)NC(=O)CNC(=O)[C@H](Cc1ccccc1)NC(=O)[C@H](CC(N)=O)NC(=O)[C@@H]1CCCN1C(=O)[C@H](CO)NC(=O)[C@H](CO)NC(=O)[C@H](Cc1c[nH]cn1)NC(=O)[C@H](CCCNC(=N)N)NC(=O)[C@H](CC(C)C)NC(=O)[C@H](Cc1ccccc1)NC(=O)[C@H](Cc1c[nH]cn1)NC(=O)[C@H](C)NC(=O)[C@H](CC(C)C)NC(=O)[C@H](CCCNC(=N)N)NC(=O)[C@H](CCC(N)=O)NC(=O)[C@@H](NC(=O)[C@H](C)NC(=O)[C@@H]1CSSC[C@H](NC(=O)[C@H](CCCNC(=N)N)NC(=O)CNC(=O)CC[C@H](NC(=O)CCCCCCCCCCCCCCCCCCC(=O)O)C(=O)O)C(=O)N[C@@H](CC(N)=O)C(=O)N[C@@H]([C@@H](C)O)C(=O)N[C@@H](C)C(=O)N[C@@H]([C@@H](C)O)C(=O)N1)[C@@H](C)O)C(=O)N1CCC[C@H]1C(=O)N[C@@H](CO)C(=O)N[C@@H](CO)C(=O)N[C@H](C(=O)N[C@@H](CC(N)=O)C(=O)N[C@H](C(=O)NCC(=O)N[C@@H](Cc1c[nH]cn1)C(=O)N[C@@H](CC(N)=O)C(=O)N[C@H](C(=O)N[C@@H](Cc1ccc(O)cc1)C(N)=O)[C@@H](C)O)C(C)C)[C@@H](C)O
notes: also called compound 100
Turning to B1, the figures for the IC50 (in experiment [1]; with rat calcitonin receptor [2]) were 0.0112 µM and 0.311 µM, respectively. The “Ratio rCT/rAmylin binding” value in the experiment with rat calcitonin receptor [3] is 27.7. Besides, the “Ratio hCT/hAmylin binding” value in experiment [4] came to 65.3.

B2: N{-1}-[(4S)-4-carboxy-4-(19-carboxynonadecanoylamino)butanoyl]-Gly[Arg1,His14,Arg17,Pro21,Pro27]-h-amylin (peptide)
peptide: {C20 diacid-γGlu}-GRCNTATCATQRLAHFLRHSSPNFGAIPSSTNVGSNTY-NH2
modifications: disulfide 3-8
SMILES: CC[C@H](C)[C@H](NC(=O)[C@H](C)NC(=O)CNC(=O)[C@H](Cc1ccccc1)NC(=O)[C@H](CC(N)=O)NC(=O)[C@@H]1CCCN1C(=O)[C@H](CO)NC(=O)[C@H](CO)NC(=O)[C@H](Cc1c[nH]cn1)NC(=O)[C@H](CCCNC(=N)N)NC(=O)[C@H](CC(C)C)NC(=O)[C@H](Cc1ccccc1)NC(=O)[C@H](Cc1c[nH]cn1)NC(=O)[C@H](C)NC(=O)[C@H](CC(C)C)NC(=O)[C@H](CCCNC(=N)N)NC(=O)[C@H](CCC(N)=O)NC(=O)[C@@H](NC(=O)[C@H](C)NC(=O)[C@@H]1CSSC[C@H](NC(=O)[C@H](CCCNC(=N)N)NC(=O)CNC(=O)CC[C@H](NC(=O)CCCCCCCCCCCCCCCCCCC(=O)O)C(=O)O)C(=O)N[C@@H](CC(N)=O)C(=O)N[C@@H]([C@@H](C)O)C(=O)N[C@@H](C)C(=O)N[C@@H]([C@@H](C)O)C(=O)N1)[C@@H](C)O)C(=O)N1CCC[C@H]1C(=O)N[C@@H](CO)C(=O)N[C@@H](CO)C(=O)N[C@H](C(=O)N[C@@H](CC(N)=O)C(=O)N[C@H](C(=O)NCC(=O)N[C@@H](CO)C(=O)N[C@@H](CC(N)=O)C(=O)N[C@H](C(=O)N[C@@H](Cc1ccc(O)cc1)C(N)=O)[C@@H](C)O)C(C)C)[C@@H](C)O
notes: also called compound 99
For B2, the IC50 in experiment [1] is 0.0027 µM; with rat calcitonin receptor [2], 0.216 µM. For the same molecule, the “Ratio rCT/rAmylin binding” value in the experiment with rat calcitonin receptor [3] was 79.8. Further, the “Ratio hCT/hAmylin binding” value in experiment [4] was determined as 100.

B3: N^-1-[(4S)-4-carboxy-4-(19-carboxynonadecanoylamino)butanoyl]-Gly[Arg1,Ala14,Arg17,Pro21,Pro27,His34]-h-amylin (peptide)
peptide: {C20 diacid-γGlu}-GRCNTATCATQRLAAFLRHSSPNFGAIPSSTNVGHNTY-NH2
modifications: disulfide 3-8
SMILES: CC[C@H](C)[C@H](NC(=O)[C@H](C)NC(=O)CNC(=O)[C@H](Cc1ccccc1)NC(=O)[C@H](CC(N)=O)NC(=O)[C@@H]1CCCN1C(=O)[C@H](CO)NC(=O)[C@H](CO)NC(=O)[C@H](Cc1c[nH]cn1)NC(=O)[C@H](CCCNC(=N)N)NC(=O)[C@H](CC(C)C)NC(=O)[C@H](Cc1ccccc1)NC(=O)[C@H](C)NC(=O)[C@H](C)NC(=O)[C@H](CC(C)C)NC(=O)[C@H](CCCNC(=N)N)NC(=O)[C@H](CCC(N)=O)NC(=O)[C@@H](NC(=O)[C@H](C)NC(=O)[C@@H]1CSSC[C@H](NC(=O)[C@H](CCCNC(=N)N)NC(=O)CNC(=O)CC[C@H](NC(=O)CCCCCCCCCCCCCCCCCCC(=O)O)C(=O)O)C(=O)N[C@@H](CC(N)=O)C(=O)N[C@@H]([C@@H](C)O)C(=O)N[C@@H](C)C(=O)N[C@@H]([C@@H](C)O)C(=O)N1)[C@@H](C)O)C(=O)N1CCC[C@H]1C(=O)N[C@@H](CO)C(=O)N[C@@H](CO)C(=O)N[C@H](C(=O)N[C@@H](CC(N)=O)C(=O)N[C@H](C(=O)NCC(=O)N[C@@H](Cc1c[nH]cn1)C(=O)N[C@@H](CC(N)=O)C(=O)N[C@H](C(=O)N[C@@H](Cc1ccc(O)cc1)C(N)=O)[C@@H](C)O)C(C)C)[C@@H](C)O
For the molecule B3, the IC50 in experiment [1] was 0.00807 µM; in the experiment with rat calcitonin receptor [2], 0.492 µM. Also, the “Ratio rCT/rAmylin binding” value with rat calcitonin receptor [3] turned out to be 60.9. Further, the “Ratio hCT/hAmylin binding” value in experiment [4] was determined as 68.6.

B4: N^-1-[(4S)-4-carboxy-4-(19-carboxynonadecanoylamino)butanoyl]-Gly[Arg1,His14,Arg17,Pro21,Pro27,Pro34]-h-amylin (peptide)
peptide: {C20 diacid-γGlu}-GRCNTATCATQRLAHFLRHSSPNFGAIPSSTNVGPNTY-NH2
modifications: disulfide 3-8
SMILES: CC[C@H](C)[C@H](NC(=O)[C@H](C)NC(=O)CNC(=O)[C@H](Cc1ccccc1)NC(=O)[C@H](CC(N)=O)NC(=O)[C@@H]1CCCN1C(=O)[C@H](CO)NC(=O)[C@H](CO)NC(=O)[C@H](Cc1c[nH]cn1)NC(=O)[C@H](CCCNC(=N)N)NC(=O)[C@H](CC(C)C)NC(=O)[C@H](Cc1ccccc1)NC(=O)[C@H](Cc1c[nH]cn1)NC(=O)[C@H](C)NC(=O)[C@H](CC(C)C)NC(=O)[C@H](CCCNC(=N)N)NC(=O)[C@H](CCC(N)=O)NC(=O)[C@@H](NC(=O)[C@H](C)NC(=O)[C@@H]1CSSC[C@H](NC(=O)[C@H](CCCNC(=N)N)NC(=O)CNC(=O)CC[C@H](NC(=O)CCCCCCCCCCCCCCCCCCC(=O)O)C(=O)O)C(=O)N[C@@H](CC(N)=O)C(=O)N[C@@H]([C@@H](C)O)C(=O)N[C@@H](C)C(=O)N[C@@H]([C@@H](C)O)C(=O)N1)[C@@H](C)O)C(=O)N1CCC[C@H]1C(=O)N[C@@H](CO)C(=O)N[C@@H](CO)C(=O)N[C@H](C(=O)N[C@@H](CC(N)=O)C(=O)N[C@H](C(=O)NCC(=O)N1CCC[C@H]1C(=O)N[C@@H](CC(N)=O)C(=O)N[C@H](C(=O)N[C@@H](Cc1ccc(O)cc1)C(N)=O)[C@@H](C)O)C(C)C)[C@@H](C)O
Consider B4, for which the half-inhibitory concentration (IC50) was determined as 0.000674 µM in experiment [1] and 0.0659 µM in the experiment with rat calcitonin receptor [2]. The “Ratio rCT/rAmylin binding” value in the experiment with rat calcitonin receptor [3] came out at 97.7. For the same molecule, in experiment [4], the “Ratio hCT/hAmylin binding” value came to 36.2.

For the molecule {C20 diacid-γGlu}-GRCNTATCATQRLAAFLRHSSPNFGAIPSSTNVGPNTY-NH2 (disulfide 3-8), the IC50 stood at 0.000436 µM in experiment [1] and 0.0563 µM with rat calcitonin receptor [2]. Besides, the “Ratio rCT/rAmylin binding” value with rat calcitonin receptor [3] came out at 129. In experiment [4], the “Ratio hCT/hAmylin binding” value is 26.5.

What is called IC50 is the point on the concentration scale where inhibition reaches its midpoint.

Source of the values: US20140087995A1 (published 2014).
